Literature values as cited in paper PMC6173998.
Read-outs that look alike come from different tables or passages of the source.

Experiments:
Aprotinin (Bos taurus) = Aprotinin (Bos taurus) (UniProt P00974)
[1] = biological target: Protease nexin-2 (Homo sapiens) (UniProt P05067)
[2] = biological target: Tissue factor pathway inhibitor-2 (KD1-WT) KD1 (Homo sapiens) (UniProt P48307)
[3] = biological target: Placental bikunin (Homo sapiens) (UniProt O43291)
[4] = biological target: KD APPH Kunitz domain (Homo sapiens) (UniProt Q06481)
Sequence of KD APPH Kunitz domain (Homo sapiens) (Q06481 306-364): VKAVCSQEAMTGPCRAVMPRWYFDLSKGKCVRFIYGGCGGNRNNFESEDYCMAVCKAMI

[5] = biological target: Corn Hageman factor inhibitor (Zea mays) (UniProt P01088)
Sequence of Corn Hageman factor inhibitor (Zea mays) (P01088 29-138): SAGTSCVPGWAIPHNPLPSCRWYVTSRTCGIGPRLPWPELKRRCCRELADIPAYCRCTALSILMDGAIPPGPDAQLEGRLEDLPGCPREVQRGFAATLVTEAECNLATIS

[6] = biological target: KD APPH Kunitz domain (Homo sapiens) (UniProt Q06481); remark: listed apart in the source
[7] = biological target: KD APPH Kunitz domain (Homo sapiens) (UniProt Q06481); remark: listed apart in the source
[8] = biological target: KD APPH Kunitz domain (Homo sapiens) (UniProt Q06481); remark: listed apart in the source
FXIa (Homo sapiens) [9] = biological target: FXIa (Homo sapiens) (UniProt P03951)
FXIa (Homo sapiens) [10] = biological target: FXIa (Homo sapiens) (UniProt P03951); remark: listed apart in the source
FXIa (Homo sapiens) [11] = biological target: FXIa (Homo sapiens) (UniProt P03951); remark: listed apart in the source
FXIa (Homo sapiens) [12] = biological target: FXIa (Homo sapiens) (UniProt P03951); remark: listed apart in the source

Sequence of Placental bikunin (Homo sapiens) (O43291 28-197): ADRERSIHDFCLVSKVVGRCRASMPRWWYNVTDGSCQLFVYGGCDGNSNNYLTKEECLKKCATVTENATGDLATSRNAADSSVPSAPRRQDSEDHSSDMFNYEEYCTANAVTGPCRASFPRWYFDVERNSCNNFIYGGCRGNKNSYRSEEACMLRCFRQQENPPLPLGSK
Sequence of placental bikunin (O43291 28-197): as above
Sequence of Plasmin (P00747 581-810): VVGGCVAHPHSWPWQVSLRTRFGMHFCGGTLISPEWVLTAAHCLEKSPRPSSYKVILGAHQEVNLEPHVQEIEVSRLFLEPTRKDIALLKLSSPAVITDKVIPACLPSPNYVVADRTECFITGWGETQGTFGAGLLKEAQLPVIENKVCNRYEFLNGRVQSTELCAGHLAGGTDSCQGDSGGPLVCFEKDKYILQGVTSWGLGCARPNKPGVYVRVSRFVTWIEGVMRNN
Sequence of TFPI-2 (KD1-WT) KD1 (P48307 36-86): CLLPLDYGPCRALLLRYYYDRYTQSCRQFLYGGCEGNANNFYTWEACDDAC
Sequence of Tissue factor pathway inhibitor-2 (KD1-WT) KD1 (Homo sapiens) (P48307 36-86): as above
Sequence of Plasma kallikrein (P03952 391-638): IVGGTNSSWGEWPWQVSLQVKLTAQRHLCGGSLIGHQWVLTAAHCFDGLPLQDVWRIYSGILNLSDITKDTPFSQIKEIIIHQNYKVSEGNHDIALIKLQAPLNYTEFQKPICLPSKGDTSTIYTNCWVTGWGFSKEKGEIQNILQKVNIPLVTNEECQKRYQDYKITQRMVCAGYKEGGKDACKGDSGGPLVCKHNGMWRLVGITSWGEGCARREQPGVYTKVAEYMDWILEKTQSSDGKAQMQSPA
Sequence of corn Hageman factor inhibitor (P01088 29-138): as the sequence (P01088 29-138) above
Sequence of Protease nexin-2 (Homo sapiens) (P05067 18-687): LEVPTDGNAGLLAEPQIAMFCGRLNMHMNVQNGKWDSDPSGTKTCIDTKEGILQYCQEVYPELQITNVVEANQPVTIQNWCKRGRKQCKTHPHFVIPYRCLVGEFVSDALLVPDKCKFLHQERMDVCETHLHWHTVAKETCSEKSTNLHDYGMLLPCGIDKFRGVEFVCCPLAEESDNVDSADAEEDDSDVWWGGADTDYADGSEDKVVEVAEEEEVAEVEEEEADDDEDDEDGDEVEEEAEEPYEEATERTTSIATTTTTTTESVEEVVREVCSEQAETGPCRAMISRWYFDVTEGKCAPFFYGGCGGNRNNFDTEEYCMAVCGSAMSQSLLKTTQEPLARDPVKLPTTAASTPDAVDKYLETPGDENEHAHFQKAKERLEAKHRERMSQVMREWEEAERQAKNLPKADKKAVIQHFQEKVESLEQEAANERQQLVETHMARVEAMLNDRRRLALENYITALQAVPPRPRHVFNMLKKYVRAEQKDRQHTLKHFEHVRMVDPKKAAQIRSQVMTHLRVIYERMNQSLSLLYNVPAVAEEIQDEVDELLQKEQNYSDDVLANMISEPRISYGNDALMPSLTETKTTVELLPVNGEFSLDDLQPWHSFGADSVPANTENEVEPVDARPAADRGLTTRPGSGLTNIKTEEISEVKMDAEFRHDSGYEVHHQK
Sequence of protease nexin-2 (P05067 18-687): as above

In the case of Factor XIa (from UniProt P03951), the Ki (Aprotinin (Bos taurus)) is given as 288 nM, the Ki [1] is given as 0.4 nM and the Ki [2] is given as 15 nM. For the same substance, the Ki [3] was 6 nM, the Ki [4] was 14 nM and the Ki [5] was 5400 nM.
In the case of “Glandular kallikrein (from UniProt P06870)”, the Ki [6] is listed as 8.8 nM.
For Plasma kallikrein (from UniProt P03952), the Ki [7] is given as 86 nM.
In the case of Plasmin (from UniProt P00747), the Ki [8] is given as 81 nM.
For “TFPI-2 (KD1-WT) KD1 (from UniProt P48307)”, the Ki (FXIa (Homo sapiens) [9]) is given as 15 nM.
For “corn Hageman factor inhibitor (from UniProt P01088)”, the Ki (FXIa (Homo sapiens) [10]) is given as 5400 nM.
In the case of placental bikunin (from UniProt O43291), the Ki (FXIa (Homo sapiens) [11]) is listed as 6 nM.
In the case of protease nexin-2 (from UniProt P05067), the Ki (FXIa (Homo sapiens) [12]) is listed as 0.4 nM.
